Test results published in the supplement of paper PMC11316812.
± gives the standard deviation of the averaged measurements.

Assays:
MCF7 = experiment: percentage of EdU-negative (G0-arrested) nuclei per well, 72 h; higher = more G0 arrest; details: reference: sequence is the full UniProt precursor, the tested protein was the secreted form or ectodomain
hTERT-HMEC = experiment: as above; details: reference: sequence is the full UniProt precursor, the tested protein was the secreted form or ectodomain
[1] = protein concentration 0.03125 µM
[2] = protein concentration 0.3125 µM
[3] = protein concentration 0.0225 µM
[4] = protein concentration 0.0105 µM
[5] = protein concentration 0.00828571 µM
[6] = protein concentration 0.0828571 µM
[7] = protein concentration 0.0328571 µM
[8] = protein concentration 0.328571 µM
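Also: secreted proteins added to cultured cells, EdU pulse at the end, nuclei found by Hoechst imaging, EdU status from nuclear versus surrounding ring intensity ratio, PBS as neutral control.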

Sequence	percentage of EdU-negative (MCF7; [3]) [%]	percentage of EdU-negative (MCF7; protein concentration 0.225 µM) [%]	percentage of EdU-negative (hTERT-HMEC; [3]) [%]	percentage of EdU-negative (hTERT-HMEC; protein concentration 0.225 µM) [%]	also measured
MSLSFLLLLFFSHLILSAWAHGEKRLAPKGQPGPAATDRNPRGSSSRQSSSSAMSSSSASSSPAASLGSQGSGLEQSSFQWSPSGRRTGSLYCRVGIGFHLQIYPDGKVNGSHEANMLSVLEIFAVSQGIVGIRGVFSNKFLAMSKKGKLHASAKFTDDCKFRERFQENSYNTYASAIHRTEKTGREWYVALNKRGKAKRGCSPRVKPQHISTHFLPRFKQSEQPELSFTVTVPEKKKPPSPIKPKIPLSAPRKNTNSVKYRLKFRFG					percentage of EdU-negative (MCF7; [1]): 27.9 ± 2.3%; percentage of EdU-negative (MCF7; [2]): 28 ± 0.77%; percentage of EdU-negative (hTERT-HMEC; [1]): 4.71 ± 0.44%; percentage of EdU-negative (hTERT-HMEC; [2]): 5.28 ± 0.53%
MSLVLLSLAALCRSAVPREPTVQCGSETGPSPEWMLQHDLIPGDLRDLRVEPVTTSVATGDYSILMNVSWVLRADASIRLLKATKICVTGKSNFQSYSCVRCNYTEAFQTQTRPSGGKWTFSYIGFPVELNTVYFIGAHNIPNANMNEDGPSMSVNFTSPGCLDHIMKYKKKCVKAGSLWDPNITACKKNEETVEVNFTTTPLGNRYMALIQHSTIIGFSQVFEPHQKKQTRASVVIPVTGDSEGATVQLTPYFPTCGSDCIRHKGTVVLCPQTGVPFPLDNNKSKPGGWLPLLLLSLLVATWVLVAGIYLMWRHERIKKTSFSTTTLLPPIKVLVVYPSEICFHHTICYFTEFLQNHCRSEVILEKWQKKKIAEMGPVQWLATQKKAADKVVFLLSNDVNSVCDGTCGKSEGSPSENSQDLFPLAFNLFCSDLRSQIHLHKYVVVYFREIDTKDDYNALSVCPKYHLMKDATAFCAELLHVKQQVSAGKRSQACHDGCCSL [Q9NRM6]	25.3 ± 1.3	26.76 ± 0.21	4.78 ± 0.46	5.29 ± 0.1	
MSLWKKTVYRSLCLALALLVAVTVFQRSLTPGQFLQEPPPPTLEPQKAQKPNGQLVNPNNFWKNPKDVAAPTPMASQGPQAWDVTTTNCSANINLTHQPWFQVLEPQFRQFLFYRHCRYFPMLLNHPEKCRGDVYLLVVVKSVITQHDRREAIRQTWGRERQSAGGGRGAVRTLFLLGTASKQEERTHYQQLLAYEDRLYGDILQWGFLDTFFNLTLKEIHFLKWLDIYCPHVPFIFKGDDDVFVNPTNLLEFLADRQPQENLFVGDVLQHARPIRRKDNKYYIPGALYGKASYPPYAGGGGFLMAGSLARRLHHACDTLELYPIDDVFLGMCLEVLGVQPTAHEGFKTFGISRNRNSRMNKEPCFFRAMLVVHKLLPPELLAMWGLVHSNLTCSRKLQVL [Q8NFL0]					percentage of EdU-negative (MCF7; [4]): 25.6 ± 1%; percentage of EdU-negative (MCF7; protein concentration 0.105 µM): 27.97 ± 0.1%; percentage of EdU-negative (hTERT-HMEC; [4]): 4.88 ± 0.47%; percentage of EdU-negative (hTERT-HMEC; protein concentration 0.105 µM): 6.5 ± 1.4%
MSLWQPLVLVLLVLGCCFAAPRQRQSTLVLFPGDLRTNLTDRQLAEEYLYRYGYTRVAEMRGESKSLGPALLLLQKQLSLPETGELDSATLKAMRTPRCGVPDLGRFQTFEGDLKWHHHNITYWIQNYSEDLPRAVIDDAFARAFALWSAVTPLTFTRVYSRDADIVIQFGVAEHGDGYPFDGKDGLLAHAFPPGPGIQGDAHFDDDELWSLGKGVVVPTRFGNADGAACHFPFIFEGRSYSACTTDGRSDGLPWCSTTANYDTDDRFGFCPSERLYTQDGNADGKPCQFPFIFQGQSYSACTTDGRSDGYRWCATTANYDRDKLFGFCPTRADSTVMGGNSAGELCVFPFTFLGKEYSTCTSEGRGDGRLWCATTSNFDSDKKWGFCPDQGYSLFLVAAHEFGHALGLDHSSVPEALMYPMYRFTEGPPLHKDDVNGIRHLYGPRPEPEPRPPTTTTPQPTAPPTVCPTGPPTVHPSERPTAGPTGPPSAGPTGPPTAGPSTATTVPLSPVDDACNVNIFDAIAEIGNQLYLFKDGKYWRFSEGRGSRPQGPFLIADKWPALPRKLDSVFEERLSKKLFFFSGRQVWVYTGASVLGPRRLDKLGLGADVAQVTGALRSGRGKMLLFSGRRLWRFDVKAQMVDPRSASEVDRMFPGVPLDTHDVFQYREKAYFCQDRFYWRVSSRSELNQVDQVGYVTYDILQCPED					percentage of EdU-negative (MCF7; [5]): 24.2 ± 1.4%; percentage of EdU-negative (MCF7; [6]): 24.7 ± 0.13%; percentage of EdU-negative (hTERT-HMEC; [5]): 4.71 ± 0.63%; percentage of EdU-negative (hTERT-HMEC; [6]): 6.64 ± 0.96%
MSMLVVFLLLWGVTWGPVTEAAIFYETQPSLWAESESLLKPLANVTLTCQAHLETPDFQLFKNGVAQEPVHLDSPAIKHQFLLTGDTQGRYRCRSGLSTGWTQLSKLLELTGPKSLPAPWLSMAPVSWITPGLKTTAVCRGVLRGVTFLLRREGDHEFLEVPEAQEDVEATFPVHQPGNYSCSYRTDGEGALSEPSATVTIEELAAPPPPVLMHHGESSQVLHPGNKVTLTCVAPLSGVDFQLRRGEKELLVPRSSTSPDRIFFHLNAVALGDGGHYTCRYRLHDNQNGWSGDSAPVELILSDETLPAPEFSPEPESGRALRLRCLAPLEGARFALVREDRGGRRVHRFQSPAGTEALFELHNISVADSANYSCVYVDLKPPFGGSAPSERLELHVDGPPPRPQLRATWSGAVLAGRDAVLRCEGPIPDVTFELLREGETKAVKTVRTPGAAANLELIFVGPQHAGNYRCRYRSWVPHTFESELSDPVELLVAES					percentage of EdU-negative (MCF7; [7]): 24.5 ± 4.7%; percentage of EdU-negative (MCF7; [8]): 27.1 ± 2.2%; percentage of EdU-negative (hTERT-HMEC; [7]): 5.27 ± 0.37%; percentage of EdU-negative (hTERT-HMEC; [8]): 10.2 ± 0.85%
MSMSPTVIILACLGFFLDQSVWAHVGGQDKPFCSAWPSAVVPQGGHVTLRCHYRRGFNIFTLYKKDGVPVPELYNRIFWNSFLISPVTPAHAGTYRCRGFHPHSPTEWSAPSNPLVIMVTGLYEKPSLTARPGPTVRAGENVTLSCSSQSSFDIYHLSREGEAHELRLPAVPSINGTFQADFPLGPATHGETYRCFGSFHGSPYEWSDPSDPLPVSVTGNPSSSWPSPTEPSFKTGIARHLHAVIRYSVAIILFTILPFFLLHRWCSKKKDAAVMNQEPAGHRTVNREDSDEQDPQEVTYAQLDHCIFTQRKITGPSQRSKRPSTDTSVCIELPNAEPRALSPAHEHHSQALMGSSRETTALSQTQLASSNVPAAGI	24.4 ± 3.2	25.68 ± 0.13	5.29 ± 1.2	4.83 ± 0.51	
MSNTQAERSIIGMIDMFHKYTRRDDKIEKPSLLTMMKENFPNFLSACDKKGTNYLADVFEKKDKNEDKKIDFSEFLSLLGDIATDYHKQSHGAAPCSGGSQ	23.5 ± 2.3	26.5 ± 2.3	5.43 ± 0.67	5.53 ± 0.45	
MSPHLTALLGLVLCLAQTIHTQEGALPRPSISAEPGTVISPGSHVTFMCRGPVGVQTFRLEREDRAKYKDSYNVFRLGPSESEARFHIDSVSEGNAGLYRCLYYKPPGWSEHSDFLELLVKESSGGPDSPDTEPGSSAGTVPGTEASGFDAP [Q6ISS4]	24.7 ± 0.63	27.9 ± 3.5	4.81 ± 0.34	6.43 ± 0.35	
